Measurements: article PMC3639042 (Molecular Biology of the Cell, 2013)

T1: Hof1-4E–3HA (budding yeast, UniProt Q05080 1-669, S313E | S421E | S533E | S563E)
T1 sequence (looked up): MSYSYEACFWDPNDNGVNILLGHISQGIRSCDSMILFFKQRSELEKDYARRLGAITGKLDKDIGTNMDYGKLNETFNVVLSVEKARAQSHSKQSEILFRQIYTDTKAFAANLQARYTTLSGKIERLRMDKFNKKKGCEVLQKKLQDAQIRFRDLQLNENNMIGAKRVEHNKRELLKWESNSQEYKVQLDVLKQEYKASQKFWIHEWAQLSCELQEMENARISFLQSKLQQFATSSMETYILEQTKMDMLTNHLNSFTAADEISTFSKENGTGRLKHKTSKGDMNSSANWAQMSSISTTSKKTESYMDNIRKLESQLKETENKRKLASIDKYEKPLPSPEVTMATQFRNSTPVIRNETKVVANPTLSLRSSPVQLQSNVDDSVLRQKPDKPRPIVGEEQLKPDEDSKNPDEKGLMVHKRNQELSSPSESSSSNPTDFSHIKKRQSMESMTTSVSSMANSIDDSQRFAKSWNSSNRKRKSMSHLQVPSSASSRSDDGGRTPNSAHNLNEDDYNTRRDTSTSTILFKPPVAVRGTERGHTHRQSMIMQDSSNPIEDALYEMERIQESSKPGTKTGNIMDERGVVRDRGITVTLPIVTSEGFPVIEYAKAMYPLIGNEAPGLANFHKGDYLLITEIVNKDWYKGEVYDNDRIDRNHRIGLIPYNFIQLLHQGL


Key:
[1] = molecular target: septin complex (6His-Cdc12-Cdc3-Cdc10-Cdc11) (budding yeast, UniProt P32468 1-407; P32457 1-520; P25342 1-322; P32458 1-415); assay: pull-down
septin complex (6His-Cdc12-Cdc3-Cdc10-Cdc11), sequence (P32468 whole entry, chain 1 of 3): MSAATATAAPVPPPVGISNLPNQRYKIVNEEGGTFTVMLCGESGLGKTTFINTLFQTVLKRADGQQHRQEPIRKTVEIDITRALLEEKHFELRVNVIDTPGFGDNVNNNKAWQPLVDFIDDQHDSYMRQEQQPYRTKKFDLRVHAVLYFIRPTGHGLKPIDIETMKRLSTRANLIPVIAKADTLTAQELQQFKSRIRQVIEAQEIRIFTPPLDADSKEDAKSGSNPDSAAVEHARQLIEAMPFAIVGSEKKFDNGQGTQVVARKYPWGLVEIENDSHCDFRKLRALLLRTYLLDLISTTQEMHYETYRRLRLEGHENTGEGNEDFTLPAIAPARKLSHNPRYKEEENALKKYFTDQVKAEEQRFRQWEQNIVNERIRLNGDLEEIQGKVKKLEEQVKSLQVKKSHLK
septin complex (6His-Cdc12-Cdc3-Cdc10-Cdc11), sequence (P32457 whole entry, chain 2 of 3): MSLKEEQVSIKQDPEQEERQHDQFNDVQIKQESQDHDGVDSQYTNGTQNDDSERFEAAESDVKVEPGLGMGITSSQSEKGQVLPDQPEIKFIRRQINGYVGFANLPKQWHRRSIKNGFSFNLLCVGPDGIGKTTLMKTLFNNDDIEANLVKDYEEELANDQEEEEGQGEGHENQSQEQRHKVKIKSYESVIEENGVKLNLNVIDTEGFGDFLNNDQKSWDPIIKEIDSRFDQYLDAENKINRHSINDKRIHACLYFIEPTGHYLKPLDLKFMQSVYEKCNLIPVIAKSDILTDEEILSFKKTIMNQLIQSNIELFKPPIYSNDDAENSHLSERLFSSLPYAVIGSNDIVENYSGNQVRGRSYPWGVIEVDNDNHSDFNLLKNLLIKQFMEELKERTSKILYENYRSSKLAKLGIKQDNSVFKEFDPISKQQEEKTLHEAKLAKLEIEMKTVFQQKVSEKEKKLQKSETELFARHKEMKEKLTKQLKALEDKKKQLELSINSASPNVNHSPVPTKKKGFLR
septin complex (6His-Cdc12-Cdc3-Cdc10-Cdc11), sequence (P32458 whole entry, chain 4 of 3): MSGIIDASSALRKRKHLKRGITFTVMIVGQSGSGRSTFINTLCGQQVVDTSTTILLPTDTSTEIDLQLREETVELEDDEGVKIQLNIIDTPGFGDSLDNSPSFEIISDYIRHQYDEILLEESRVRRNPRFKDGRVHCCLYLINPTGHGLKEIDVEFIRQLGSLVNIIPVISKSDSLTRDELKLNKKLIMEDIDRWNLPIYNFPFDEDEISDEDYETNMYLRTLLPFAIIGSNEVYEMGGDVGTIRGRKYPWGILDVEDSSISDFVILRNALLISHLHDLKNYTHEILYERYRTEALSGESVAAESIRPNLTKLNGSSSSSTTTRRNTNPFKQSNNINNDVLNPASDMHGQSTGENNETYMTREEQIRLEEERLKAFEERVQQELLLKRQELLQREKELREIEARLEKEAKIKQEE

Hof1-4E–3HA = molecular target: T1, Hof1-4E–3HA; assay: co-IP

| binding result [1] | fold less coimmunoprecipitated than with Hof1-3HA (Hof1-4E–3HA) [fold] | Binder |
| --- | --- | --- |
| binds |  | GST-HOF1-SID (aa 200–355) (domain or fragment, budding yeast, UniProt Q05080 200-355, looked up) KFWIHEWAQLSCELQEMENARISFLQSKLQQFATSSMETYILEQTKMDMLTNHLNSFTAADEISTFSKENGTGRLKHKTSKGDMNSSANWAQMSSISTTSKKTESYMDNIRKLSSQLKETENKRKLASIDKYEKPLPSPEVTMATQFRNSTPVIRN |
|  | 2.5 | Cdc10-TAP (natural protein, budding yeast, UniProt P25342 1-322, looked up) MDPLSSVQPASYVGFDTITNQIEHRLLKKGFQFNIMVVGQSGLGKSTLINTLFASHLIDSATGDDISALPVTKTTEMKISTHTLVEDRVRLNINVIDTPGFGDFIDNSKAWEPIVKYIKEQHSQYLRKELTAQRERFITDTRVHAILYFLQPNGKELSRLDVEALKRLTEIANVIPVIGKSDTLTLDERTEFRELIQNEFEKYNFKIYPYDSEELTDEELELNRSVRSIIPFAVVGSENEIEINGETFRGRKTRWSAINVEDINQCDFVYLREFLIRTHLQDLIETTSYIHYEGFRARQLIALKENANSRSSAHMSSNAIQR |
